The target of assay [1] is CD28 (human) (UniProt P10747).
The target in assay [2] is PD-L1 (human) (UniProt Q9NZQ7).
Assay [3] concerns the target PD-L1 (human) (UniProt Q9NZQ7). Description: flow cytometry, CHO cells expressing PD-L1. A general note: A flow cytometer gives signals particle by particle.
Another assay has as its target human CTLA-4 (human) (UniProt P16410). Nature of the assay: flow cytometry, CHO cells expressing CTLA4.
Assay [4] has as its target CD28 (human) (UniProt P10747). Description: flow cytometry, Jurkat cells (CD28).

human CTLA-4 (human), sequence (P16410 36-223): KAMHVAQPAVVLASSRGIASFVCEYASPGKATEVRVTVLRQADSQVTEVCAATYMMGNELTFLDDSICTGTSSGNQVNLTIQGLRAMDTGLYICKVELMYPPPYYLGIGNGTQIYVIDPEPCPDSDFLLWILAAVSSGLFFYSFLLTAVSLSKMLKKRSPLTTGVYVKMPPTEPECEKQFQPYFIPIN
PD-L1 (human), sequence (Q9NZQ7 19-290): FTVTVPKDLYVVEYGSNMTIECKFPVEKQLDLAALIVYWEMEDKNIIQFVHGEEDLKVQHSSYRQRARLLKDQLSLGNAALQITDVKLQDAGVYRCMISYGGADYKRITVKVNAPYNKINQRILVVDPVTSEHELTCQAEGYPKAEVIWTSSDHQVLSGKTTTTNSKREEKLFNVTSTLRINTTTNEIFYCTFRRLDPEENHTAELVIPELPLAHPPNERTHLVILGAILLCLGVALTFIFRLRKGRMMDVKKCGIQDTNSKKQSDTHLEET

In the case of “CD80 E35D/M47I/L85Q/D90G IgV-Fc (inert) (Fc fusion)”, the Jurkat/IL2 reporter RLU at 50 nM, K562/OKT3/PD-L1 aAPC in the assay with CD28 (human) [1] and in the assay with PD-L1 (human) [2] was 1440 RLU each time.

For “CD80 Q33L/E35D/M43I/Y53F/T62S/L85Q IgV-Fc (inert) (Fc fusion)”, the Jurkat/IL2 reporter RLU at 50 nM, K562/OKT3/PD-L1 aAPC with CD28 (human) [1] and in the assay with PD-L1 (human) [2] was 168 RLU in each case.

On to “CD80 V22L/Q27H/E35D/M47I/A71G IgV-Fc (inert) (Fc fusion)”, for which the Jurkat/IL2 reporter RLU at 50 nM, K562/OKT3/PD-L1 aAPC with CD28 (human) [1] and with PD-L1 (human) [2] was 1120 RLU in each case.

On to “CD80 V22D/E35D/M47L/L70M/L97Q IgV-Fc (inert) (Fc fusion)”, for which the Jurkat/IL2 reporter RLU at 50 nM, K562/OKT3/PD-L1 aAPC in the assay with CD28 (human) [1] and with PD-L1 (human) [2] was 1540 RLU each time.

Regarding “CD80 Q27H/E35D/D46V/M47L/A71G IgV-Fc (inert) (Fc fusion)”, the Jurkat/IL2 reporter RLU at 50 nM, K562/OKT3/PD-L1 aAPC in the assay with CD28 (human) [1] and in the assay with PD-L1 (human) [2] was 978 RLU each time.

Consider “CD80 H18Y/E35D/M47L/V68M/A71G/L85M IgV-Fc (Fc fusion)”, for which the MFI at 33.3 nM with PD-L1 (human) [3] amounted to 18700 MFI; with human CTLA-4 (human) it was 19500 MFI.

On to “CD80 E35D/A71D/L72V/R73H/E81K IgV-Fc (inert) (Fc fusion)”, for which the Jurkat/IL2 reporter RLU at 50 nM, K562/OKT3/PD-L1 aAPC with CD28 (human) [1] and in the assay with PD-L1 (human) [2] was 282 RLU throughout.

With “CD80 E35D/L85Q/K93T/E95V/L97Q IgV-Fc (inert) (Fc fusion)”, the Jurkat/IL2 reporter RLU at 50 nM, K562/OKT3/PD-L1 aAPC in the assay with CD28 (human) [1] and with PD-L1 (human) [2] was 315 RLU throughout.

On to “CD80 V22A/E35D/M47I/Y87N IgV-Fc (inert) (Fc fusion)”, for which the Jurkat/IL2 reporter RLU at 50 nM, K562/OKT3/PD-L1 aAPC in the assay with CD28 (human) [1] and with PD-L1 (human) [2] was 1390 RLU throughout.

Regarding “CD80 E35D/D46E/M47V/N63D/L85Q IgV-Fc (inert) (Fc fusion)”, the Jurkat/IL2 reporter RLU at 50 nM, K562/OKT3/PD-L1 aAPC with CD28 (human) [1] and with PD-L1 (human) [2] was 1380 RLU throughout.

With “CD80 Q33L/E35D/M47I/N48D/A71G IgV-Fc (inert) (Fc fusion)”, the Jurkat/IL2 reporter RLU at 50 nM, K562/OKT3/PD-L1 aAPC with CD28 (human) [1] and in the assay with PD-L1 (human) [2] was 213 RLU in each case.

As to “CD80 Q27H/E35D/M47I/L85Q/D90G IgV-Fc (inert) (Fc fusion)”, the Jurkat/IL2 reporter RLU at 50 nM, K562/OKT3/PD-L1 aAPC in the assay with CD28 (human) [1] and in the assay with PD-L1 (human) [2] was 1310 RLU throughout.

Turning to “CD80 R29C/E35D/M47L/V68M/A71G/L85M IgV-Fc (Fc fusion)”, the figures for the MFI at 33.3 nM with human CTLA-4 (human) and with CD28 (human) [4] were 91 MFI and 16 MFI, respectively.

With “CD80 E35D/D46E/M47V/V68M/L85Q IgV-Fc (Fc fusion)”, the MFI at 33.3 nM with PD-L1 (human) [3] is 1720 MFI; in the assay with human CTLA-4 (human), 15500 MFI.

For “CD80 S21P/E35D/K37E/D46E/M47I/V68M IgV-Fc (Fc fusion)”, the MFI at 33.3 nM with human CTLA-4 (human) is 20600 MFI; with CD28 (human) [4], 540 MFI.

For “CD80 E35D/D46V/M47L/V68M/L85Q/E88D IgV-Fc (inert) (Fc fusion)”, the Jurkat/IL2 reporter RLU at 50 nM, K562/OKT3/PD-L1 aAPC with CD28 (human) [1] and with PD-L1 (human) [2] was 1460 RLU each time.

Consider “CD80 E35D/M38T/M43V/M47V/N48R/L85Q IgV-Fc (inert) (Fc fusion)”, for which the Jurkat/IL2 reporter RLU at 50 nM, K562/OKT3/PD-L1 aAPC with CD28 (human) [1] and with PD-L1 (human) [2] was 680 RLU throughout.

On to “CD80 E35D/T41S/M43I/M47V/A71G IgV-Fc (inert) (Fc fusion)”, for which the Jurkat/IL2 reporter RLU at 50 nM, K562/OKT3/PD-L1 aAPC with CD28 (human) [1] and in the assay with PD-L1 (human) [2] was 1270 RLU throughout.

For “CD80 E35D/D46E/M47V/A71D/D90G IgV-Fc (inert) (Fc fusion)”, the Jurkat/IL2 reporter RLU at 50 nM, K562/OKT3/PD-L1 aAPC in the assay with CD28 (human) [1] and with PD-L1 (human) [2] was 1040 RLU throughout.

On to “CD80 Q33R/E35D/M47V/N48K/L85M/F92L IgV-Fc (inert) (Fc fusion)”, for which the Jurkat/IL2 reporter RLU at 50 nM, K562/OKT3/PD-L1 aAPC with CD28 (human) [1] and with PD-L1 (human) [2] was 215 RLU in each case.

In the case of “CD80 R29H/E35D/M43V/M47I/I49V IgV-Fc (inert) (Fc fusion)”, the Jurkat/IL2 reporter RLU at 50 nM, K562/OKT3/PD-L1 aAPC with CD28 (human) [1] and with PD-L1 (human) [2] was 227 RLU in each case.

Consider “CD80 E35D/M47I/T62S/L85Q IgV-Fc (inert) (Fc fusion)”, for which the Jurkat/IL2 reporter RLU at 50 nM, K562/OKT3/PD-L1 aAPC with CD28 (human) [1] and in the assay with PD-L1 (human) [2] was 1570 RLU each time.

For the substance “CD80 E35D/M47L/A71G/L85M/F92Y IgV-Fc (inert) (Fc fusion)”, the Jurkat/IL2 reporter RLU at 50 nM, K562/OKT3/PD-L1 aAPC in the assay with CD28 (human) [1] and in the assay with PD-L1 (human) [2] was 1320 RLU in each case.

In the case of “CD80 H18Y/A26E/E35D/M47L/L85Q/D90G IgV-Fc (inert) (Fc fusion)”, the Jurkat/IL2 reporter RLU at 50 nM, K562/OKT3/PD-L1 aAPC in the assay with CD28 (human) [1] and with PD-L1 (human) [2] was 1510 RLU in each case.

The record behind these values is patent US20220177587A1, “METHODS AND USES OF VARIANT CD80 FUSION PROTEINS AND RELATED CONSTRUCTS” (Alpine Immune Sciences, Inc., priority 2018, published 2022).
